According to US20240043549A1 (ALS THERAPY DEVELOPMENT INSTITUTE, published 2024):

Experiments:
Assay in all cases: solid phase ELISA, antibody coated, FCGR titrated
[1] = molecular target: T1, high affinity Fc region of IgG receptor IA (FCGR1A) (CD64) (human, UniProt P12314 16-292)
T1 construct: Bought recombinant human protein (Santa Cruz Biotechnology)
Method: (§1) The plate was blocked and recombinant human Fe gamma receptor (FCGR) proteins (Santa Cruz Biotechnology, Santa Cruz, California) titrated by 2-fold dilution with a starting concentration of 5 μg/ml. […] After binding and washing, the FCGR was detected using an appropriate FCGR isoform specific murine monoclonal antibody (1000 ng/ml) and a horseradish peroxidase conjugate goat anti-mouse IgG detector antibody.
(§2) The plate was blocked and recombinant human Fe gamma receptor (FCGR) proteins (Santa Cruz Biotechnology, Santa Cruz, California) titrated onto by 2-fold dilution with a starting concentration of 5 μg/ml.

[2] = molecular target: T2, low affinity immunoglobulin gamma fc region receptor IIIB (FCGR3B) (CD16b) (human, UniProt O75015 17-200)
T2 construct: Bought recombinant human protein (Santa Cruz Biotechnology); also called FCR3B
T2 chain: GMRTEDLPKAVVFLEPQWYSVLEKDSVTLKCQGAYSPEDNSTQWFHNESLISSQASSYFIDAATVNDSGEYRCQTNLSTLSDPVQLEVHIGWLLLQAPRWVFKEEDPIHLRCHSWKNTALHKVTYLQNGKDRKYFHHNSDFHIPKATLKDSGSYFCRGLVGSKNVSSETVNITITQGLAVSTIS
Method: as §1, §2

[3] = molecular target: T3, low affinity immunoglobulin gamma fc region receptor IIIA (FCGR3A) (CD16a) (human, UniProt P08637 17-208)
T3 construct: Bought recombinant human protein (Santa Cruz Biotechnology); also called FCR3A
T3 sequence (P08637 17-208 limits assumed): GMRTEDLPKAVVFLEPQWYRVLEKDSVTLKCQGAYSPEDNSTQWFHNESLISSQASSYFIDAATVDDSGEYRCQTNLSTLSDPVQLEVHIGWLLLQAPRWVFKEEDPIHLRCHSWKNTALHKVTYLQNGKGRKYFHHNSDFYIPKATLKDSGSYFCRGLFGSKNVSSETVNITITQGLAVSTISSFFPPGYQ
Method: as §1, §2

[4] = molecular target: T4, low affinity immunoglobulin gamma fc region receptor IIA (FCGR2A) (CD32) (human, UniProt P12318 34-217)
T4 construct: Bought recombinant human protein (Santa Cruz Biotechnology); also called FCGR2A receptor
T4 sequence: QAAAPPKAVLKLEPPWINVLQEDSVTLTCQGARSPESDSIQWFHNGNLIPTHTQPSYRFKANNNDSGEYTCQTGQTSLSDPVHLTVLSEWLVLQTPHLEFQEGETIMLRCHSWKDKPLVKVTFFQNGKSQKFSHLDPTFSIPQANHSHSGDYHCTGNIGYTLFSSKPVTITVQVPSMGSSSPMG
Method: as §1, §2

T1 sequence (P12314 16-292 limits assumed): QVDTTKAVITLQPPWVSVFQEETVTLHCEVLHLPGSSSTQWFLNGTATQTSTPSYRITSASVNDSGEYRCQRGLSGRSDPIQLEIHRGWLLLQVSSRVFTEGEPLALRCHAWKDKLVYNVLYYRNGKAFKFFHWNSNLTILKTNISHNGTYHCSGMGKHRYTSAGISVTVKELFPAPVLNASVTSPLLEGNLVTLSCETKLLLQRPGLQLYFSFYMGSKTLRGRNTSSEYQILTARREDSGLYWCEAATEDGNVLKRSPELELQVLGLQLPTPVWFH

B1: JB5 antibody (antibody)
heavy: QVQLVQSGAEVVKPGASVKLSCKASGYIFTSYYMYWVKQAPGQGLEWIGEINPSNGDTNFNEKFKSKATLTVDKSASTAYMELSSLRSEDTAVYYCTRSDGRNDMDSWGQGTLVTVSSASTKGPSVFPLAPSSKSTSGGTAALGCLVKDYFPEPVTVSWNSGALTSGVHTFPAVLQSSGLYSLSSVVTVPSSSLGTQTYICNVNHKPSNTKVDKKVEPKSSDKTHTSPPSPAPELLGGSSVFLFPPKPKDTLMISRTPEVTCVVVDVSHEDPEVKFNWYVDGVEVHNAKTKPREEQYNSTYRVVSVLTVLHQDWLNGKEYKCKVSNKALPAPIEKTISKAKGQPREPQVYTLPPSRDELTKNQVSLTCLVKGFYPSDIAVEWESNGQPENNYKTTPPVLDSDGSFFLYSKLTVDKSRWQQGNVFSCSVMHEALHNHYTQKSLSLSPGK
light: DIVLTQSPATLSVSPGERATISCRASQRVSSSTYSYMHWYQQKPGQPPKLLIKYASNLESGVPARFSGSGSGTDFTLTISSVEPEDFATYYCQHSWEIPPTFGGGTKLEIKRTVAAPSVFIFPPSDEQLKSGTASVVCLLNNFYPREAKVQWKVDNALQSGNSQESVTEQDSKDSTYSLSSTLTLSKADYEKHKVYACEVTHQGLSSPVTKSFNRGEC
notes: The text mostly prints the name as 'JBS'; also called JBS (OCR spelling of JB5 in the text); mutant JBS antibody
binding result [1]: no binding (tested: FCGR titrated from 5 µg/ml) | binding result [2]: no binding (tested: FCGR titrated from 5 µg/ml) | binding result [3]: no binding (tested: FCGR titrated from 5 µg/ml) | binding result [4]: no binding (tested: FCGR titrated from 5 µg/ml)

B2: hu5c8 antibody (antibody, human IgG1)
heavy: not shown
VL: DIVLTQSPATLSVSPGERATISCRASQRVSSSTYSYMHWYQQKPGQPPKLLIKYASNLESGVPARFSGSGSGTDFTLTISSVEPEDFATYYCQHSWEIPPTFGGGTKLEIK
notes: Humanized 5c8, IgG1; no full light chain entry is named for it; also called parental antibody hu5c8; hu5c8-IgG1
binding result [2]: no binding (tested: FCGR titrated from 5 µg/ml) | binding result [3]: no binding (tested: FCGR titrated from 5 µg/ml)
